This is an account of results in publication PMC12207370, “Macrocyclic Peptide Probes for Immunomodulatory Protein CD59: Potent Modulators of Bacterial Toxin Activity and Antibody‐Dependent Cytotoxicity” (Angewandte Chemie (International Ed. in English), 2025).

The assay has as its target T1, biotinylated CD59 (Homo sapiens, UniProt P13987).
T1 construct: Recombinant soluble human CD59 with an additional C-terminal cysteine residue
T1 sequence (P13987 26-102 limits assumed): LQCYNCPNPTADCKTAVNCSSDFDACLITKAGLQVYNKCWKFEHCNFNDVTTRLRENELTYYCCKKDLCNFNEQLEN
In words: mRNA-display cyclic peptide screen against CD59-biotin, NGS abundance after 6th selection round. To be noted: for Percentage Seq I: counts normalised by total counts of sample Seq I; for Percentage Seq I / Percentage Seq II: percentage of the pool; for Percentage Seq I / Percentage Seq II / Percentage Average / Percentage of the pool, averaged across the two sequencing samples / Percentage of the pool, Seq I / Percentage of the pool, Seq II: sheet R6; for Percentage Seq II: counts normalised by total counts of sample Seq II; for Percentage Average: percentage of the pool averaged across the two sequencing samples; for Counts Seq I / Counts Seq II: raw NGS counts of peptide sequence; for Counts Seq I: sequencing sample Seq I; for Counts Seq I / Counts Seq II / Counts (raw counts for peptide sequence), Seq I / Counts (raw counts for peptide sequence), Seq II: sheet R6 (6th selection round); for Counts Seq II: sequencing sample Seq II; for Counts (raw counts for peptide sequence), Seq I: NGS sample Seq I; for Counts (raw counts for peptide sequence), Seq II: NGS sample Seq II; for Percentage of the pool, averaged across the two sequencing samples: average of Seq I and Seq II; for Percentage of the pool, Seq I: counts normalised by total counts of NGS sample Seq I; for Percentage of the pool, Seq II: counts normalised by total counts of NGS sample Seq II. The gist of the method: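 Peptide–mRNA fusions were made by in vitro translation with a customised PURE express kit. The kit lacked release factor 1 and methionine and was supplemented with […] initiator tRNA carrying N-chloroacetyl-d-tyrosine. Thioether macrocycles were formed, then enriched and amplified over iterative rounds on CD59-biotin immobilised on streptavidin beads. NGS read counts per sequence were recorded after the 6th selection round.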

On to CYGSRTFIYAWS, for which the “Percentage Seq I” value amounted to 0.026%, the “Percentage Seq II” value is recorded as 0.019%, the “Percentage Average” value stood at 0.022% and the “Counts Seq I” value came to 114. Moreover, the “Counts Seq II” value is 8.

For the sequence CFQRRTLGPDAI, the “Percentage Seq I” value is given as 0.094%, the “Percentage Seq II” value stood at 0.088%, the “Percentage Average” value amounted to 0.091% and the “Counts Seq I” value stood at 412. Besides, the “Counts Seq II” value turned out to be 38.

In the case of CFARRLSASFGT, the “Percentage Seq I” value was found to be 1.002%, the “Percentage Seq II” value is on record as 0.935%, the “Percentage Average” value is 0.969% and the “Counts Seq I” value is 4384. In addition, the “Counts Seq II” value was found to be 403.

Take LKPNGRCLPKV: the “Percentage Seq I” value is reported as 0.272%, the “Percentage Seq II” value is 0.283%, the “Percentage Average” value was 0.277% and the “Counts Seq I” value is on record as 1189. For the same sequence, the “Counts Seq II” value is listed as 122.

Regarding CYGGRTFIYAWL, the “Counts (raw counts for peptide sequence), Seq I” value was 35; the “Counts (raw counts for peptide sequence), Seq II” value amounted to 8; the “Percentage of the pool, averaged across the two sequencing samples” value is 0.013%; the “Percentage of the pool, Seq I” value is 0.008%. Further, the “Percentage of the pool, Seq II” value is recorded as 0.019%.

FVMGNRDHTRG: the “Percentage Seq I” value is 0.017%, the “Percentage Seq II” value was determined as 0.023%, the “Percentage Average” value is on record as 0.020% and the “Counts Seq I” value is reported as 76. The “Counts Seq II” value is listed as 10.

As to HQECWARGSRE, the “Counts (raw counts for peptide sequence), Seq I” value is recorded as 68; the “Counts (raw counts for peptide sequence), Seq II” value stood at 5; the “Percentage of the pool, averaged across the two sequencing samples” value is 0.014%; the “Percentage of the pool, Seq I” value is given as 0.016%. In addition, the “Percentage of the pool, Seq II” value is recorded as 0.012%.

As to FVRGDPYSVLG, the “Percentage Seq I” value is 0.057%, the “Percentage Seq II” value is listed as 0.049%, the “Percentage Average” value was determined as 0.053% and the “Counts Seq I” value is given as 251. For the same sequence, the “Counts Seq II” value was 21.

In the case of SSYRELAHLSC, the “Percentage Seq I” value worked out at 0.127%, the “Percentage Seq II” value is given as 0.125%, the “Percentage Average” value is 0.126% and the “Counts Seq I” value is 555. Also, the “Counts Seq II” value was 54.

With CFAGRPTIDAV, the “Percentage Seq I” value was 0.018%, the “Percentage Seq II” value was determined as 0.028%, the “Percentage Average” value is listed as 0.023% and the “Counts Seq I” value was determined as 80. Besides, the “Counts Seq II” value is recorded as 12.

As to WIRGNRDESLG, the “Counts (raw counts for peptide sequence), Seq I” value is on record as 46; the “Counts (raw counts for peptide sequence), Seq II” value stood at 7; the “Percentage of the pool, averaged across the two sequencing samples” value is recorded as 0.013%; the “Percentage of the pool, Seq I” value worked out at 0.011%. Moreover, the “Percentage of the pool, Seq II” value came to 0.016%.

In the case of HVFGNRSFTRG, the “Percentage Seq I” value worked out at 5.324%, the “Percentage Seq II” value is 5.834%, the “Percentage Average” value turned out to be 5.579% and the “Counts Seq I” value turned out to be 23292. The “Counts Seq II” value turned out to be 2514.

As to FIRGNSTSVLY, the “Counts (raw counts for peptide sequence), Seq I” value is listed as 58; the “Counts (raw counts for peptide sequence), Seq II” value is 8; the “Percentage of the pool, averaged across the two sequencing samples” value is 0.016%; the “Percentage of the pool, Seq I” value turned out to be 0.013%. Moreover, the “Percentage of the pool, Seq II” value was 0.019%.

For the sequence CFSRRSTSSQST, the “Percentage Seq I” value was 0.018%, the “Percentage Seq II” value came out at 0.019%, the “Percentage Average” value was determined as 0.018% and the “Counts Seq I” value worked out at 77. In addition, the “Counts Seq II” value was 8.

For FVRGDLHSVLG, the “Percentage Seq I” value came to 0.058%, the “Percentage Seq II” value is on record as 0.044%, the “Percentage Average” value worked out at 0.051% and the “Counts Seq I” value turned out to be 253. Besides, the “Counts Seq II” value came out at 19.

Consider EARGTKSFAYY, for which the “Percentage Seq I” value came to 0.124%, the “Percentage Seq II” value turned out to be 0.100%, the “Percentage Average” value came out at 0.112% and the “Counts Seq I” value came out at 544. For the same sequence, the “Counts Seq II” value is on record as 43.

Turning to CFNSRLHIGAV, the “Percentage Seq I” value is reported as 0.041%, the “Percentage Seq II” value was 0.058%, the “Percentage Average” value was found to be 0.050% and the “Counts Seq I” value was found to be 181. For the same sequence, the “Counts Seq II” value is listed as 25.

With SAWGNRLIQYY, the “Counts (raw counts for peptide sequence), Seq I” value stood at 80; the “Counts (raw counts for peptide sequence), Seq II” value is recorded as 5; the “Percentage of the pool, averaged across the two sequencing samples” value is 0.015%; the “Percentage of the pool, Seq I” value came out at 0.018%. Further, the “Percentage of the pool, Seq II” value is on record as 0.012%.

For LRGSYDYQLYFG, the “Percentage Seq I” value amounted to 0.013%, the “Percentage Seq II” value is on record as 0.023%, the “Percentage Average” value was found to be 0.018% and the “Counts Seq I” value came out at 57. The “Counts Seq II” value turned out to be 10.

With SIRGGRDYTRG, the “Percentage Seq I” value is listed as 0.110%, the “Percentage Seq II” value worked out at 0.128%, the “Percentage Average” value was determined as 0.119% and the “Counts Seq I” value stood at 482. Further, the “Counts Seq II” value was found to be 55.

For YIVGSSDYTRG, the “Percentage Seq I” value is 0.417%, the “Percentage Seq II” value is listed as 0.388%, the “Percentage Average” value was found to be 0.402% and the “Counts Seq I” value worked out at 1825. Further, the “Counts Seq II” value worked out at 167.

Turning to IATGSKLYAKG, the “Percentage Seq I” value is recorded as 0.033%, the “Percentage Seq II” value is 0.046%, the “Percentage Average” value worked out at 0.040% and the “Counts Seq I” value is 145. Moreover, the “Counts Seq II” value is 20.

In the case of FVSGNRDHTRG, the “Counts (raw counts for peptide sequence), Seq I” value amounted to 51; the “Counts (raw counts for peptide sequence), Seq II” value was determined as 5; the “Percentage of the pool, averaged across the two sequencing samples” value is given as 0.012%; the “Percentage of the pool, Seq I” value came out at 0.012%. Moreover, the “Percentage of the pool, Seq II” value was 0.012%.

For SWTWGNRSSVRG, the “Percentage Seq I” value came out at 2.910%, the “Percentage Seq II” value was 2.799%, the “Percentage Average” value is listed as 2.855% and the “Counts Seq I” value is 12733. In addition, the “Counts Seq II” value is 1206.

As for HVFGNKSFTRG, the “Counts (raw counts for peptide sequence), Seq I” value was 63; the “Counts (raw counts for peptide sequence), Seq II” value is recorded as 9; the “Percentage of the pool, averaged across the two sequencing samples” value worked out at 0.018%; the “Percentage of the pool, Seq I” value is listed as 0.014%. The “Percentage of the pool, Seq II” value is 0.021%.

CYGGRTFIYAWP: the “Percentage Seq I” value was determined as 0.060%, the “Percentage Seq II” value worked out at 0.072%, the “Percentage Average” value was determined as 0.066% and the “Counts Seq I” value stood at 263. The “Counts Seq II” value came to 31.

Turning to LCAENPLRPR, the “Percentage Seq I” value was found to be 0.075%, the “Percentage Seq II” value was 0.077%, the “Percentage Average” value turned out to be 0.076% and the “Counts Seq I” value came to 329. Moreover, the “Counts Seq II” value was 33.

CFVRRLNDLTTT: the “Percentage Seq I” value was 0.121%, the “Percentage Seq II” value stood at 0.137%, the “Percentage Average” value is 0.129% and the “Counts Seq I” value amounted to 528. Moreover, the “Counts Seq II” value worked out at 59.

For RGGTRDTIWG, the “Percentage Seq I” value is listed as 0.078%, the “Percentage Seq II” value worked out at 0.063%, the “Percentage Average” value is listed as 0.070% and the “Counts Seq I” value is reported as 340. Also, the “Counts Seq II” value was 27.

Take TYGSRFCPQYCAAAAAAARTGGG: the “Percentage Seq I” value was determined as 0.030%, the “Percentage Seq II” value worked out at 0.037%, the “Percentage Average” value is 0.034% and the “Counts Seq I” value was 133. Also, the “Counts Seq II” value is on record as 16.

Consider CFAGRLTEGV, for which the “Percentage Seq I” value worked out at 0.035%, the “Percentage Seq II” value is 0.044%, the “Percentage Average” value was 0.040% and the “Counts Seq I” value amounted to 155. In addition, the “Counts Seq II” value was determined as 19.

As for FIRGNSTSVLFAAAAAAARTGGG, the “Counts (raw counts for peptide sequence), Seq I” value stood at 40; the “Counts (raw counts for peptide sequence), Seq II” value is given as 7; the “Percentage of the pool, averaged across the two sequencing samples” value was 0.013%; the “Percentage of the pool, Seq I” value turned out to be 0.009%. The “Percentage of the pool, Seq II” value came to 0.016%.

With SAWGNRQIQYH, the “Counts (raw counts for peptide sequence), Seq I” value is listed as 65; the “Counts (raw counts for peptide sequence), Seq II” value is recorded as 7; the “Percentage of the pool, averaged across the two sequencing samples” value is reported as 0.016%; the “Percentage of the pool, Seq I” value is given as 0.015%. Moreover, the “Percentage of the pool, Seq II” value is 0.016%.

On to TFAHRVGSCQST, for which the “Percentage Seq I” value turned out to be 0.019%, the “Percentage Seq II” value came out at 0.026%, the “Percentage Average” value is on record as 0.022% and the “Counts Seq I” value is given as 85. The “Counts Seq II” value turned out to be 11.

Turning to HCWVRGSRNYT, the “Percentage Seq I” value was found to be 2.570%, the “Percentage Seq II” value came to 2.548%, the “Percentage Average” value is on record as 2.559% and the “Counts Seq I” value is recorded as 11242. The “Counts Seq II” value was 1098.
